From patent publication US12077795B2, “Method for biocatalytic protein-oligonucleotide conjugation” (The Research Foundation for The State University of New York, priority 2016, dated 2024)

Tested on: heterologous proteins fused to HST-I
Test: HST-I catalysed protein conjugation (optical assay to monitor HST-I)
Format: biochemical, Drosophila melanogaster
Method: Using an optical assay developed to monitor HST-I, heterologous proteins can be covalently modified at their C-terminus by cholesterol with a t1/2 of 10-20 min at pH 7.1, 25 degrees Celsius.

B1: HST-I: ~26 kDa autocatalytic C-terminal segment of the Hedgehog precursor from Drosophila melanogaster, SEQ ID NO.: 001 (protein)
chain: GCFTPESTALLESGVRKPLGELSIGDRVLSMTANGQAVYSEVILFMDRNLEQMQNFVQLHTDGGAVLTVTPAHLVSVWQPESQKLTFVFADRIEEKNQVLVRDVETGELRPQRVVKVGSVRSKGVVAPLTREGTIVVNSVAASCYAVINSQSLAHWGLAPMRLLSTLEAWLPAKEQLHSSPKVVSSAQQQNGIHWYANALYKVKDYVLPQSWRHD
modifications: Drosophila melanogaster
**Q.** What does the source list for B1?
**A.** time for protein conjugation (in the absence of accessory proteins): < 60 min; half time of conjugation (physiological buffer, room temperature): ≤ 1 h
